Reference: article PMC5115829, “Digitor/dASCIZ Has Multiple Roles in Drosophila Development” (PLoS ONE, 2016)

Target: T1, His-tagged COOH-terminal fragment of Digitor containing the six TQT motifs (amino acids 256 to 388) (Drosophila, UniProt Q9VZU1 256-388)
T1 construct: Digitor/dASCIZ (CG14962), Drosophila, residues 256-388, holds the six TQT motifs; full length is aa 1-388; Purification is not described; 10 ug amounts are stated; also called Digitor-His; His-Digitor; source: expressed in BL21 cells (pET28a)
T1 sequence (looked up): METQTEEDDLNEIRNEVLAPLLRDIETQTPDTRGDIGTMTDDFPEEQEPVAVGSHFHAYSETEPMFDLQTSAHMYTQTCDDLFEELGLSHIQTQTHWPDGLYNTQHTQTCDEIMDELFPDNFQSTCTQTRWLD
Experiment: pull-down; MBP-Cut up or MBP alone bound to amylose resin, incubated with His-tagged Digitor in 1X PBS pH 7.4, 4 hr, 4°C; 5 washes; immunoblot with anti-His antibody
Conditions: both partners purified

- binding result: binds
B1: full length Cut up MBP fusion protein (amino acids 1-89) (natural protein, Drosophila, UniProt Q24117 1-89, looked up)
chain: MSDRKAVIKNADMSEEMQQDAVDCATQALEKYNIEKDIAAYIKKEFDKKYNPTWHCIVGRNFGSYVTHETRHFIYFYLGQVAILLFKSG
notes: Cut up, the Dynein light chain (DYNLL1 homolog) of Drosophila, full-length cDNA encoding amino acids 1-89; Purification is not described; 10 ug amounts are stated; also called MBP-Cut-up; MBP-Cut up; source: expressed in BL21 cells (pMAL-C2X)
